What was measured:
Assay in all cases: SEC; Protein A affinity, then S200 size exclusion to purify the hexamer fraction; analytical HPLC; hexamer counts Fc units
[1] = biological target: IgG1 Fc hexamer (L309) (human)
[2] = biological target: IgG1 Fc hexamer (L309C) (human)
[3] = biological target: IgG4 Fc hexamer (L309) (human)
[4] = biological target: IgG4 Fc hexamer (L309C) (human)

IgG1 Fc hexamer (L309)
stoichiometry N [1]: 6

IgG1 Fc hexamer (L309C)
stoichiometry N [2]: 6

IgG4 Fc hexamer (L309)
stoichiometry N [3]: 6

IgG4 Fc hexamer (L309C)
stoichiometry N [4]: 6
